For 1 molecule, Kd results are on record in paper PMC5514147, “Characterization of HIV-1 integrase interaction with human Ku70 protein and initial implications for drug targeting” (Scientific Reports, 2017).

In the assay the target is T1, Ku70_1-250 mutant (N-terminal alpha/beta-domain of Ku70) with N-terminal GST-tag (human, UniProt P12956 1-250).
T1 construct: Ku70, human, residues 1-250 (N-terminal alpha/beta domain); also called Ku_1-250; Ku70 N-terminal domain; not shown: GST, N-terminal, kept
T1 sequence (P12956 1-250, change not shown): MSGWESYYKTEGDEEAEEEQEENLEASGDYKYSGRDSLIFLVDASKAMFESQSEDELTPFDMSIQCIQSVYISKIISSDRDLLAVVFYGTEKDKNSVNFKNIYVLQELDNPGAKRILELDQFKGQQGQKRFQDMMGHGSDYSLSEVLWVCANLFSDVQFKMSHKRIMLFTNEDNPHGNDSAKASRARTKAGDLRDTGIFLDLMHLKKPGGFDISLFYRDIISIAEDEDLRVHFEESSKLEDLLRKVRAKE
Briefly: pull-down; GST-pull-down: GST-Ku70 proteins (or GST) held on glutathione-agarose, His6-IN proteins as prey; buffer A (20 mM Hepes pH 7.5, 100 mM NaCl, 7.5 mM MgCl2, 2 mM 2-mercaptoethanol, 50 ug/ml BSA, 0.1% NP40), room temperature, Western blot; Kd from increasing IN at 50 nM Ku70 mutant. Particulars: both partners purified. For orientation: Immunoblotting shows a protein as a band on a membrane.

B1: IN_1-220 (HIV-1 integrase with truncated C-terminal domain), N-terminal His6-tag (domain or fragment)
chain: FLDGIDKAQDEHEKYHSNWRAMASDFNLPPVVAKEIVASCDKCQLKGEAMHGQVDCSPGIWQLDCTHLEGKVILVAVHVASGYIEAEVIPAETGQETAYFLLKLAGRWPVKTIHTDNGSNFTGATVRAACWWAGIKQEFGIPYNPQSQGVVESMNKELKKIIGQVRDQAEHLKTAVQMAVFIHNFKRKGGIGGYSAGERIVDIIATDIQTKELQKQITKI
notes: not shown: His6, N-terminal, kept
For B1, the Kd amounted to 120 ± 30 nM.

By Kd is commonly meant the equilibrium constant for the complex coming apart. A high value points to a looser complex.
